Results: patent publication US6100053A, “Microbial transglutaminases, their production and use” (priority 1994, dated 2000)

These substances were tested against α-casein.

Row | Units/ml (putrescine assay) | Substance
1 | 0.6 units/ml | TGase sample of Hydrogenophaga palleroni (Basonym: Pseudomonas palleroni) (pool or library)
2 | 1.4 units/ml | TGase sample of Pseudomonas putida, NCIMB 9869 (pool or library)
3 | 0.3 units/ml | TGase sample of Hafnia alvei (pool or library)
4 | 3.3 units/ml | TGase sample of Streptomyces sioyaensis (pool or library)

Further lines, the substance ahead of its results:

Row | Substance | Units/ml (putrescine assay)
5 | TGase sample of Bacillus aneurinolyticus (pool or library) | 0.8 units/ml
6 | TGase sample of Bacillus megaterium, AJ 3355 (pool or library) | 0.03 units/ml

Molecular target: α-casein
Remark: another data set of the same source

Row | Units/ml (putrescine assay) | Substance
7 | 0.14 Units/ml | transglutaminase preparation (culture broth) of Coprinus cinereus (pool or library)
8 | 0.34 Units/ml | transglutaminase preparation (culture broth) of Halosphaeriopsis mediosetigera (pool or library)
9 | 0.13 Units/ml | transglutaminase preparation (culture broth) of Myrothecium roridum (pool or library)
10 | 0.2 Units/ml | transglutaminase preparation (culture broth) of Gymnopilus junonius (pool or library)
11 | 0.25 Units/ml | transglutaminase preparation (culture broth) of Lyophyllum sp. (pool or library)
12 | 0.14 Units/ml | transglutaminase preparation (culture broth) of Nidula sp. (pool or library)
13 | 13 Units/ml | transglutaminase preparation (culture broth) of Cercospora carisis (pool or library)
14 | 0.16 Units/ml | transglutaminase preparation (culture broth) of Tricholoma flavovirens (pool or library)
15 | 0.19 Units/ml | transglutaminase preparation (culture broth) of Aspergillus giganteus (pool or library)
16 | 0.96 Units/ml | transglutaminase preparation (culture broth) of Dendryphiella salina (pool or library)
17 | 1.3 Units/ml | transglutaminase preparation (culture broth) of Cercospora fusimaculans (pool or library)
18 | 0.8 Units/ml | transglutaminase preparation (culture broth) of Antrodia serialis (pool or library)
19 | 0.15 Units/ml | transglutaminase preparation (culture broth) of Lignincola sp. (pool or library)
20 | 0.23 Units/ml | transglutaminase preparation (culture broth) of Talaromyces helicus (pool or library)
21 | 0.3 Units/ml | transglutaminase preparation (culture broth) of Podospora tetraspora (pool or library)
22 | 0.14 Units/ml | transglutaminase preparation (culture broth) of Scytinostroma portentosum (pool or library)
23 | 0.76 Units/ml | transglutaminase preparation (culture broth) of Humicola alopallonella (pool or library)
24 | 0.24 Units/ml | transglutaminase preparation (culture broth) of Cercospora sesami (pool or library)
25 | 0.15 Units/ml | transglutaminase preparation (culture broth) of Ascotricha erinacea (pool or library)
26 | 0.95 Units/ml | transglutaminase preparation (culture broth) of Hortea werneckii (pool or library)
27 | 2.36 Units/ml | transglutaminase preparation (culture broth) of Pleurotus sp. (pool or library)
28 | 0.32 Units/ml | transglutaminase preparation (culture broth) of Botryosphaeria rhodina (pool or library)
29 | 0.23 Units/ml | transglutaminase preparation (culture broth) of Cunninghamella elegans (pool or library)
30 | 1.07 Units/ml | transglutaminase preparation (culture broth) of Cladosporium sphaeospermum (pool or library)
31 | 6.24 Units/ml | transglutaminase preparation (culture broth) of Savoryella lignicola (pool or library)
32 | 0.42 Units/ml | transglutaminase preparation (culture broth) of Dimorphosporum disporatrichum (pool or library)

Second part, the substance before the results:

Row | Substance | Units/ml (putrescine assay)
33 | transglutaminase preparation (culture broth) of Trichoderma harzianum (pool or library) | 0.25 Units/ml
34 | transglutaminase preparation (culture broth) of Hypholoma fasciculare (pool or library) | 0.14 Units/ml
35 | transglutaminase preparation (culture broth) of Aspergillus puniceus (pool or library) | 0.12 Units/ml
36 | transglutaminase preparation (culture broth) of Valsa pini (pool or library) | 0.73 Units/ml
37 | transglutaminase preparation (culture broth) of Aspergillus tamarii (pool or library) | 0.16 Units/ml
38 | transglutaminase preparation (culture broth) of Cercospora hayi (pool or library) | 0.26 Units/ml
39 | transglutaminase preparation (culture broth) of Mucor luteus (pool or library) | 0.34 Units/ml
40 | transglutaminase preparation (culture broth) of Cladosporium cladosporiodes (pool or library) | 0.22 Units/ml
41 | transglutaminase preparation (culture broth) of Fusarium dimerum (pool or library) | 0.25 Units/ml
42 | transglutaminase preparation (culture broth) of Alternaria alternata (pool or library) | 0.16 Units/ml
43 | transglutaminase preparation (culture broth) of Kuhneromyces variabilis (pool or library) | 0.14 Units/ml
44 | transglutaminase preparation (culture broth) of Chaetomium funicolum (pool or library) | 0.16 Units/ml
45 | transglutaminase preparation (culture broth) of Panaeolus papilionaceus (pool or library) | 0.15 Units/ml
46 | transglutaminase preparation (culture broth) of Fusarium armeniacum (pool or library) | 0.19 Units/ml
47 | transglutaminase preparation (culture broth) of Sporormiella australis (pool or library) | 0.13 Units/ml
48 | transglutaminase preparation (culture broth) of Cladosporium resinae (pool or library) | 0.14 Units/ml
49 | transglutaminase preparation (culture broth) of Carponia solliomaris (pool or library) | 0.11 Units/ml

Row | Substance | Units/ml (putrescine assay)
50 | transglutaminase preparation (culture broth) of Amylostereum chailletii (pool or library) | 0.44 Units/ml
51 | transglutaminase preparation (culture broth) of Rhizoctonia solani (pool or library) | 0.17 Units/ml
52 | transglutaminase preparation (culture broth) of Lulworthia uniseptata (pool or library) | 0.36 Units/ml
53 | transglutaminase preparation (culture broth) of Coniothyrium cerealis (pool or library) | 0.13 Units/ml
54 | transglutaminase preparation (culture broth) of Pholiota jahnii (pool or library) | 0.21 Units/ml
55 | transglutaminase preparation (culture broth) of Trametes hirsuta (pool or library) | 0.21 Units/ml
56 | transglutaminase preparation (culture broth) of Chamaemyces fracidus (pool or library) | 0.2 Units/ml
57 | transglutaminase preparation (culture broth) of Psathyrella condolleana (pool or library) | 0.19 Units/ml
58 | transglutaminase preparation (culture broth) of Cladosporium oxysporum (pool or library) | 0.19 Units/ml
59 | transglutaminase preparation (culture broth) of Cercospora traversiana (pool or library) | 0.53 Units/ml
60 | transglutaminase preparation (culture broth) of Amanita virosa (pool or library) | 0.14 Units/ml
61 | transglutaminase preparation (culture broth) of Cochliobolus sativus (pool or library) | 0.09 Units/ml
62 | transglutaminase preparation (culture broth) of Armillaria sp. (pool or library) | 0.62 Units/ml
63 | transglutaminase preparation (culture broth) of Mucor aligarensis (pool or library) | 0.31 Units/ml
64 | transglutaminase preparation (culture broth) of Coprinus sp. (pool or library) | 0.44 Units/ml
65 | transglutaminase preparation (culture broth) of Monodictys pelagica (pool or library) | 2.31 Units/ml
